Read-outs that look alike come from different tables or passages of the source.
Assays:
Conditions in all cases: co-substrate O2, 30 °C
N3-GOX = assay: O2 consumption, Hansatech oxygen electrode, nonlinear Michaelis-Menten fit; type: biochemical, synthetic construct
Description: O2 consumption, Hansatech oxygen electrode, nonlinear Michaelis-Menten fit on N3-GOX

purified protein [1] = substrate: C[C@H](O)C(=O)O; assay: purified protein
purified protein [2] = substrate: O=C(O)CO; assay: purified protein

In the case of `C[C@H](O)C(=O)O` [L-lactate], the Km (N3-GOX; read-out: L-Lactate / Km) is reported as 13.7 ± 1.93 mM.

Molecule `O=C(O)CO` [glycolate] has a Km (N3-GOX; read-out: Glycolate / Km) of 11.8 ± 0.61 mM.

B1: Cp-GOXc (Cyanophora paradoxa) (protein)
chain: MQPLSAQALAQYRAAAPMDPVNVMEYQMVAKEKLPKMVYDYYASGADDQWTLQEARSAFERITFRPRVLVDVSVQDMSTTILGQKVAFPICVAPTAMQCMATGQGEKATSRAVASMNTLMTLSSWSTTPLEEVAKAAPHGARWFQLYVYKDRACTERLVRRAQAAGYKALCLTVDTPRLGRRENDVKNRFHLPDGLTMGNFLDLVQAEMPTDQKDSGLAAYVASLIDPTLNWKDVEWLKTITNLPIVVKGVLTAEDALMAVKHGCAGIVVSNHGARQLDYSPATIDVLEEVVNAVRGYPIEVYLDGGVRRGTDALKALALGARAVFVGRPVVWGLAAGGEEGVRKVLTMLRDEFKLGLALLGCQSLKDINRSMVVTPADRAKTAVRARL
With B1 the Km (purified protein [1]) was 9.27 ± 1.44 mM, the Vmax (purified protein [1]) was 6.94 µmol/min/mg and the Km (purified protein [2]) was 0.38 ± 0.05 mM. The Vmax (purified protein [2]) was 8.98 µmol/min/mg.

B2: Sp-GOX (Spirogyra pratensis) (protein)
chain: MSSEVVNVTEFQAIAKQKLPKQTYDYYASGAEDEWSLRENRNAFERITFRPRILIDVSKIDLTTSVLGYRLSMPIMVAPTAMQKMAHPDGELATARAATSMNTAMTLSSWATSSVEEVSSTGPGLRFFQLYVYKNRDVVLQLVRRAEKAGFKAIALTVDTPRLGRREADIRNKFVLPPGLTLKNFEGLDLGKMDQTEDSGLASYVAGQIDRSLSWKDVKWLQSVTSMPILVKGVITGEDAKIAVECGASGIIVSNHGARQLDYVSSTINALEEVVKATAGRIPVFLDGGVRRGTDVLKALALGAKGVFVGRPVVFALASDGEAGVKKCLQMLRDEFELAMALAGCTKISDINRSLVQTEGDRIRMAARL
Work on B2 yielded a Km (purified protein [1]) of 15.52 ± 4.55 mM, a Vmax (purified protein [1]) of 24.2 µmol/min/mg and a Km (purified protein [2]) of 0.94 ± 0.12 mM. For the same molecule, the Vmax (purified protein [2]) was 28.1 µmol/min/mg.
